Biological target: exportin 1 (XPO1, CRM1) (UniProt O14980)
Experiment: anti-HA
Conditions: reference: wild type; sites S182

- binding against the reference: stronger
Substance: YTHDF1 (from UniProt Q9BYJ9) S182A
